The results in this text go back to publication PMC11006857, “Structure-guided functional suppression of AML-associated DNMT3A hotspot mutations” (Nature Communications, 2024).

Series [1] concerns the target DNMT3A^R882H/N879A protein (as used for size-exclusion chromatography) (human). Put plainly: SEC; Superose 6 Increase 10/300 GL, 100 µL of 3 mg/mL protein, 4 °C, 20 mM Hepes pH 7.2, 250 mM NaCl, 5% glycerol, 5 mM DTT; elution volume against molecular weight standards.
Series [2] concerns the molecule itself. Described as above.
Series [3] concerns the molecule itself. Kind of series: crystal structure; DNMT3A MTase domain with S-adenosyl-homocysteine; sitting drop vapor diffusion, 0.2-0.4 M potassium sodium tartrate, 4 °C; homotetramer via RD and FF interfaces.

Broadly, the stoichiometry N is a count of units in the complex or per binding partner. As to “DNMT3A^R882H/N879A protein (as used for size-exclusion chromatography) (domain or fragment)”, the stoichiometry N in series [1] is 4.

B1: MBP-tagged DNMT3A MTase domain R676K (domain or fragment, human, UniProt Q9Y6K1 628-912, looked up)
chain: AEKRKPIRVLSLFDGIATGLLVLKDLGIQVDRYIASEVCEDSITVGMVKHQGKIMYVGDVRSVTQKHIQEWGPFDLVIGGSPCNDLSIVNPARKGLYEGTGRLFFEFYRLLHDARPKEGDDRPFFWLFENVVAMGVSDKRDISRFLESNPVMIDAKEVSAAHRARYFWGNLPGMNRPLASTVNDKLELQECLEHGRIAKFSKVRTITTRSNSIKQGKDQHFPVFMNEKEDILWCTEMERVFGFPVHYTDVSNMSRLARQRLLGRSWSVPVIRHLFAPLKEYFACV
notes: human DNMT3A MTase domain, residues 628-912; source: E. coli BL21(DE3) RIL, purified; not shown: MBP, N-terminal, kept
On to B1, for which, in series [2], the binding result is on record as “binds”.

B2: MBP-tagged DNMT3A MTase domain M674T/R676K (domain or fragment, human, UniProt Q9Y6K1 628-912, looked up)
chain: AEKRKPIRVLSLFDGIATGLLVLKDLGIQVDRYIASEVCEDSITVGTVKHQGKIMYVGDVRSVTQKHIQEWGPFDLVIGGSPCNDLSIVNPARKGLYEGTGRLFFEFYRLLHDARPKEGDDRPFFWLFENVVAMGVSDKRDISRFLESNPVMIDAKEVSAAHRARYFWGNLPGMNRPLASTVNDKLELQECLEHGRIAKFSKVRTITTRSNSIKQGKDQHFPVFMNEKEDILWCTEMERVFGFPVHYTDVSNMSRLARQRLLGRSWSVPVIRHLFAPLKEYFACV
notes: as for B1
As to B2, in series [2], the binding result is “binds”.

B3: DNMT3A^R882H/N879A (crystallised form) (domain or fragment, human)
chain: AEKRKPIRVLSLFDGIATGLLVLKDLGIQVDRYIASEVCEDSITVGMVRHQGKIMYVGDVRSVTQKHIQEWGPFDLVIGGSPCNDLSIVNPARKGLYEGTGRLFFEFYRLLHDARPKEGDDRPFFWLFENVVAMGVSDKRDISRFLESNPVMIDAKEVSAAHRARYFWGNLPGMNRPLASTVNDKLELQECLEHGRIAKFSKVRTITTRSNSIKQGKDQHFPVFMNEKEDILWCTEMERVFGFPVHYTDVSAMSHLARQRLLGRSWSVPVIRHLFAPLKEYFACV
notes: human DNMT3A; the abstract speaks of crystal structures of the methyltransferase domain; The crystallisation methods name only R882H/R676K and R882C/R676K as mutants; probably residues 628-912 like the others; also called DNMT3A^N879A/R882H; N879A/R882H-mutated DNMT3A; source: E. coli BL21(DE3) RIL, purified
In the case of B3, in series [3], the “stoichiometry N” value turned out to be 4.
